Test results taken from publication PMC5712619, “3-Sulfogalactosyl-dependent adhesion of Escherichia coli HS multivalent adhesion molecule is attenuated by sulfatase activity” (The Journal of Biological Chemistry, 2017).

Target: mucin from porcine stomach type II (porcine)
Test: ELISA; as a2, but mucin type II was first treated with supernatant of the sulfatase-deficient B. thetaiotaomicron anSME mutant for 24 h or 72 h

Chain of mucin from porcine stomach type II (porcine) (main, as listed by the source): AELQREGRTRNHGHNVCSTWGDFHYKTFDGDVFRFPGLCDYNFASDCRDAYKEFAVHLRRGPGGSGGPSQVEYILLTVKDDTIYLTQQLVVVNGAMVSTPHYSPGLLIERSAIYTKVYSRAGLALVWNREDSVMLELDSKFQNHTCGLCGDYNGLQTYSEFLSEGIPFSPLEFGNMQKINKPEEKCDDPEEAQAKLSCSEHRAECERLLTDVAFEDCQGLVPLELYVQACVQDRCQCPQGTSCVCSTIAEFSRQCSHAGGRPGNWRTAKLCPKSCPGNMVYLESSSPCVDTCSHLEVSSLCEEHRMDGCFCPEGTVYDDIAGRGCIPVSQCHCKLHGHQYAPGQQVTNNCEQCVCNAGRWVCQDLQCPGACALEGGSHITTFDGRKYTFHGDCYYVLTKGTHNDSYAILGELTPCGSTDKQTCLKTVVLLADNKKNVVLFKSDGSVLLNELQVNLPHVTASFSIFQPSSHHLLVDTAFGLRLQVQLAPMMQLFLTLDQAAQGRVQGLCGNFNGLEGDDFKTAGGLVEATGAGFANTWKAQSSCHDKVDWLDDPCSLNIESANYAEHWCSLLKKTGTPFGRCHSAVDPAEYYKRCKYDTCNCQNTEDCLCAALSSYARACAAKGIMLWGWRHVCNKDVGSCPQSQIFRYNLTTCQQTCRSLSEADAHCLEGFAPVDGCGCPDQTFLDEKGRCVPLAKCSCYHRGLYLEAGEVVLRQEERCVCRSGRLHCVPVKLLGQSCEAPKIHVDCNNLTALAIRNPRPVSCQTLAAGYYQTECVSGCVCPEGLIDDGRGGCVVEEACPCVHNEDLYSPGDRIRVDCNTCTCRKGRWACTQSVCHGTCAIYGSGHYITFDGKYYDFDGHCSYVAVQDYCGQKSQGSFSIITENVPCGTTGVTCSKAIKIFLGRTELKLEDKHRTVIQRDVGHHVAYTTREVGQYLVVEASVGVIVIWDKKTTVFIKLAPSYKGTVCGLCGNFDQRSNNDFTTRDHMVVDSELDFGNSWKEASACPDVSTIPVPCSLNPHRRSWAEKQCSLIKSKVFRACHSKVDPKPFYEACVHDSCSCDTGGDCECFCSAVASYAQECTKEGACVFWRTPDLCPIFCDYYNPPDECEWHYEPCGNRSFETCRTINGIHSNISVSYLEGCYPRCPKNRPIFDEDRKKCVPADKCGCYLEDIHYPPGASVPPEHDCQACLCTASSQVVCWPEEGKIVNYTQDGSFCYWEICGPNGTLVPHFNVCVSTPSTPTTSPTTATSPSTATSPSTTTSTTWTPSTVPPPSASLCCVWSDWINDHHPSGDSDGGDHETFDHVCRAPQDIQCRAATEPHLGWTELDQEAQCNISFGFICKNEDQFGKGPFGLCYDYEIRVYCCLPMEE

- loss of binding as percent of the loss seen with wild-type supernatant (24 h treatment of mucin with anSME mutant supernatant): 25%
- loss of binding as percent of the loss seen with wild-type supernatant (72 h treatment of mucin with anSME mutant supernatant): 50%
Substance: GST-MAM^HS (multivalent adhesion molecule from the gut commensal Escherichia coli HS, ΔTM construct) (domain or fragment)
